PMC12394548 (Nature Communications, 2025)

Key:
Settings in all cases: both partners purified
[1] = target: T1, valosin-containing protein (VCP)/p97 (UniProt P55072 1-806, terbium chelate (CoraFluor), non-site-selective labelling, DOL 0.33, in the TR-FRET assays only); test: FRET or BRET; TR-FRET displacement assay: 10 nM BODIPY-VCPIP1 WT pre-incubated with 10 nM Tb-VCP, serial dilution of unlabelled VCPIP1 WT or p47; TR-FRET buffer, room temperature
T1 construct: VCP/p97, full length; One molecule for the unlabelled protein (cryo-EM, DUB assay) and the Tb-labelled protein (TR-FRET); Hexamer seen by cryo-EM; also called Tb-VCP; terbium-chelate labeled VCP; source: co-expressed with VCPIP1 for cryo-EM data set 1 (ion exchange omitted)
T1 sequence (P55072 whole entry): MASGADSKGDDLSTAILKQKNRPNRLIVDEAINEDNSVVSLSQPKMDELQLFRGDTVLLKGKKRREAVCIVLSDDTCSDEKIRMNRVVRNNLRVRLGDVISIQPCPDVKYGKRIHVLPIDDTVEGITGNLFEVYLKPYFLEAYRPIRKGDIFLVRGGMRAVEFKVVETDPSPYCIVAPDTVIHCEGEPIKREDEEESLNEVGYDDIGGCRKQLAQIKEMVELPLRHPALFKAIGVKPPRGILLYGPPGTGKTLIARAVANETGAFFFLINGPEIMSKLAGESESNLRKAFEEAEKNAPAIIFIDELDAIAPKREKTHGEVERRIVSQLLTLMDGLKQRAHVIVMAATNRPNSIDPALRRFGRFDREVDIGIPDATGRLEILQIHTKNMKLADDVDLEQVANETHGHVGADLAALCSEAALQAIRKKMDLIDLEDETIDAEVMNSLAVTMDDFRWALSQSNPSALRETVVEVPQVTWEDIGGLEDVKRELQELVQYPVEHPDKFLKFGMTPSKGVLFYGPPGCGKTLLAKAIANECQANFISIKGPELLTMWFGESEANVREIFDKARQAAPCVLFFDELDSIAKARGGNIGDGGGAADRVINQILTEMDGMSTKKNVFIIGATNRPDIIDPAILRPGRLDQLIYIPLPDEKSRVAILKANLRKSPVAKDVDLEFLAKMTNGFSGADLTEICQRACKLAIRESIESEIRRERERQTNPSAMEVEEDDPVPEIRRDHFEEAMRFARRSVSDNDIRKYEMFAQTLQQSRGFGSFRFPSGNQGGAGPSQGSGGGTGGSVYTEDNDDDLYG

[2] = target: T1, valosin-containing protein (VCP)/p97; test: FRET or BRET; TR-FRET binding assay: Tb-VCP with a serial dilution of BODIPY-labelled VCPIP1 construct; 25 mM HEPES pH 7.4, 150 mM NaCl, 0.1% BSA, 0.05% Tween-20; 1 h at room temperature; apparent KD
[3] = target: T1, valosin-containing protein (VCP)/p97; test: FRET or BRET; TR-FRET binding assay of BODIPY-VCPIP1 WT on Tb-VCP with 1 uM AMP; apparent KD
[4] = target: T1, valosin-containing protein (VCP)/p97; test: FRET or BRET; TR-FRET binding assay of BODIPY-VCPIP1 WT on Tb-VCP with 1 uM ADP; apparent KD
[5] = target: T1, valosin-containing protein (VCP)/p97; test: FRET or BRET; TR-FRET binding assay of BODIPY-VCPIP1 WT on Tb-VCP with 1 uM ATPγS; apparent KD
[6] = target: T1, valosin-containing protein (VCP)/p97; test: FRET or BRET; TR-FRET binding assay of BODIPY-VCPIP1 WT on Tb-VCP with 1 uM ATP; apparent KD
[7] = target: T1, valosin-containing protein (VCP)/p97; test: FRET or BRET; TR-FRET binding assay of BODIPY-VCPIP1 WT on Tb-VCP, buffer control (no nucleotide added); apparent KD; another protein batch than a3

B1: p47 (natural protein)
chain: MAAERQEALREFVAVTGAEEDRARFFLESAGWDLQIALASFYEDGGDEDIVTISQATPSSVSRGTAPSDNRVTSFRDLIHDQDEDEEEEEGQRFYAGGSERSGQQIVGPPRKKSPNELVDDLFKGAKEHGAVAVERVTKSPGETSKPRPFAGGGYRLGAAPEEESAYVAGEKRQHSSQDVHVVLKLWKSGFSLDNGELRSYQDPSNAQFLESIRRGEVPAELRRLAHGGQVNLDMEDHRDEDFVKPKGAFKAFTGEGQKLGSTAPQVLSTSSPAQQAENEAKASSSILIDESEPTTNIQIRLADGGRLVQKFNHSHRISDIRLFIVDARPAMAATSFILMTTFPNKELADESQTLKEANLLNAVIVQRLT
notes: p47 cloned into pNIC-Bio2 with an N-terminal His-6-TEV tag; printed residue numbers reach V366 (UBX domain); Used unlabelled in the displacement assay and in cryo-EM; also called adapter protein p47; source: E. coli LOBSTR, purified (Ni resin, ion exchange, SEC)
IC50 [1]: 20.4 nM

B2: valosin contain protein p97/p47 interacting protein 1 (VCPIP1), wild type (enzyme, UniProt Q96JH7 1-1222, looked up)
chain: MSQPPPPPPPLPPPPPPPEAPQTPSSLASAAASGGLLKRRDRRILSGSCPDPKCQARLFFPASGSVSIECTECGQRHEQQQLLGVEEVTDPDVVLHNLLRNALLGVTGAPKKNTELVKVMGLSNYHCKLLSPILARYGMDKQTGRAKLLRDMNQGELFDCALLGDRAFLIEPEHVNTVGYGKDRSGSLLYLHDTLEDIKRANKSQECLIPVHVDGDGHCLVHAVSRALVGRELFWHALRENLKQHFQQHLARYQALFHDFIDAAEWEDIINECDPLFVPPEGVPLGLRNIHIFGLANVLHRPIILLDSLSGMRSSGDYSATFLPGLIPAEKCTGKDGHLNKPICIAWSSSGRNHYIPLVGIKGAALPKLPMNLLPKAWGVPQDLIKKYIKLEEDGGCVIGGDRSLQDKYLLRLVAAMEEVFMDKHGIHPSLVADVHQYFYRRTGVIGVQPEEVTAAAKKAVMDNRLHKCLLCGALSELHVPPEWLAPGGKLYNLAKSTHGQLRTDKNYSFPLNNLVCSYDSVKDVLVPDYGMSNLTACNWCHGTSVRKVRGDGSIVYLDGDRTNSRSTGGKCGCGFKHFWDGKEYDNLPEAFPITLEWGGRVVRETVYWFQYESDSSLNSNVYDVAMKLVTKHFPGEFGSEILVQKVVHTILHQTAKKNPDDYTPVNIDGAHAQRVGDVQGQESESQLPTKIILTGQKTKTLHKEELNMSKTERTIQQNITEQASVMQKRKTEKLKQEQKGQPRTVSPSTIRDGPSSAPATPTKAPYSPTTSKEKKIRITTNDGRQSMVTLKSSTTFFELQESIAREFNIPPYLQCIRYGFPPKELMPPQAGMEKEPVPLQHGDRITIEILKSKAEGGQSAAAHSAHTVKQEDIAVTGKLSSKELQEQAEKEMYSLCLLATLMGEDVWSYAKGLPHMFQQGGVFYSIMKKTMGMADGKHCTFPHLPGKTFVYNASEDRLELCVDAAGHFPIGPDVEDLVKEAVSQVRAEATTRSRESSPSHGLLKLGSGGVVKKKSEQLHNVTAFQGKGHSLGTASGNPHLDPRARETSVVRKHNTGTDFSNSSTKTEPSVFTASSSNSELIRIAPGVVTMRDGRQLDPDLVEAQRKKLQEMVSSIQASMDRHLRDQSTEQSPSDLPQRKTEVVSSSAKSGSLQTGLPESFPLTGGTENLNTETTDGCVADALGAAFATRSKAQRGNSVEELEEMDSQDAEMTNTTEPMDHS
modifications: BODIPY, non-site-selective labelling, DOL 0.23, as the labelled partner of the TR-FRET assays; unlabelled in cryo-EM, as competitor in the displacement assay and in the DUB assay
notes: AlphaFold model AF-Q96JH7-F1-v4 used for model building; One molecule for labelled and unlabelled protein; also called VCPIP1^WT; VCIP135; source: co-expressed with VCP for cryo-EM data set 1 (ion exchange omitted)
Kd [2]: 79.5 nM | Kd [3]: 16.1 nM | Kd [4]: 67.6 nM | IC50 [1]: 74.5 nM | Kd [5]: 63.9 nM | Kd [6]: 68.3 nM | Kd [7]: 16.5 nM

B3: VCPIP1^ΔVCPID (aa Δ589-666) (enzyme, UniProt Q96JH7 1-1222, looked up)
chain: MSQPPPPPPPLPPPPPPPEAPQTPSSLASAAASGGLLKRRDRRILSGSCPDPKCQARLFFPASGSVSIECTECGQRHEQQQLLGVEEVTDPDVVLHNLLRNALLGVTGAPKKNTELVKVMGLSNYHCKLLSPILARYGMDKQTGRAKLLRDMNQGELFDCALLGDRAFLIEPEHVNTVGYGKDRSGSLLYLHDTLEDIKRANKSQECLIPVHVDGDGHCLVHAVSRALVGRELFWHALRENLKQHFQQHLARYQALFHDFIDAAEWEDIINECDPLFVPPEGVPLGLRNIHIFGLANVLHRPIILLDSLSGMRSSGDYSATFLPGLIPAEKCTGKDGHLNKPICIAWSSSGRNHYIPLVGIKGAALPKLPMNLLPKAWGVPQDLIKKYIKLEEDGGCVIGGDRSLQDKYLLRLVAAMEEVFMDKHGIHPSLVADVHQYFYRRTGVIGVQPEEVTAAAKKAVMDNRLHKCLLCGALSELHVPPEWLAPGGKLYNLAKSTHGQLRTDKNYSFPLNNLVCSYDSVKDVLVPDYGMSNLTACNWCHGTSVRKVRGDGSIVYLDGDRTNSRSTGGKCGCGFKHFWDGKEYDNLNIDGAHAQRVGDVQGQESESQLPTKIILTGQKTKTLHKEELNMSKTERTIQQNITEQASVMQKRKTEKLKQEQKGQPRTVSPSTIRDGPSSAPATPTKAPYSPTTSKEKKIRITTNDGRQSMVTLKSSTTFFELQESIAREFNIPPYLQCIRYGFPPKELMPPQAGMEKEPVPLQHGDRITIEILKSKAEGGQSAAAHSAHTVKQEDIAVTGKLSSKELQEQAEKEMYSLCLLATLMGEDVWSYAKGLPHMFQQGGVFYSIMKKTMGMADGKHCTFPHLPGKTFVYNASEDRLELCVDAAGHFPIGPDVEDLVKEAVSQVRAEATTRSRESSPSHGLLKLGSGGVVKKKSEQLHNVTAFQGKGHSLGTASGNPHLDPRARETSVVRKHNTGTDFSNSSTKTEPSVFTASSSNSELIRIAPGVVTMRDGRQLDPDLVEAQRKKLQEMVSSIQASMDRHLRDQSTEQSPSDLPQRKTEVVSSSAKSGSLQTGLPESFPLTGGTENLNTETTDGCVADALGAAFATRSKAQRGNSVEELEEMDSQDAEMTNTTEPMDHS
modifications: BODIPY, non-site-selective labelling, DOL 0.62, in the TR-FRET binding assay
notes: VCPIP1 full length with the VCPID (aa 589-666) deleted; made from the Strep-VCPIP1 plasmid by PCR; also called VCPID domain truncation
Kd [2]: 67.9 nM
